For one substance, stoichiometry N and Ki results are on record in PMC3688800.

Assay [1] concerns the target Crataeva tapia bark protein (CrataBL) (Crataeva tapia) (UniProt U3KRG0). Put plainly: SEC; Superdex 75 equilibrated in 0.15 M NaCl; at the concentration used in the crystallization trials.
The target in the next assay is bovine trypsin (bovine). Put plainly: enzyme inhibition assay; chromogenic or fluorogenic substrates in 96-well plates at 37°C; enzyme pre-incubated with CrataBL for 10 min; apparent Ki (Kiapp) by fit to the equation for slow-tight binding; buffer specific for each enzyme (trypsin 40 nM in 0.1 M Tris-HCl pH 8.0 with CaCl2; Factor Xa 21 nM in 0.02 M Tris-HCl pH 7.4, 0.14 M NaCl, 5.0 mM CaCl2, 0.1% BSA).

Another assay deals with human Factor Xa (human). Described as above.

Usually stoichiometry N stands for the number of molecules, sites or subunits per partner or assembly. Turning to “Crataeva tapia bark protein (CrataBL) (from UniProt U3KRG0 1-165) (natural protein)”, in assay [1], the stoichiometry N turned out to be 2. Also, the Ki is 43 µM with bovine trypsin (bovine) and 8.6 µM with human Factor Xa (human).
